Test results as given in publication PMC11257983 (2024).

B1: Flag-CNK^2–549 [Drosophila] / V5-KSR [Drosophila] (parent)
chain 1: MSSNNNAPASAPDTGSTNANDPISGSLSVDSNLVIIQDMIDLSANHLEGLRTQCAISSTLTQQEIRCLESKLVRYFSELLLAKMRLNERIPANGLVPHTTGNELRQWLRVVGLSQGTLTACLARLTTLEQSLRLSDEEIRQLLADSPSQREEEELRRLTRAMQNLRKCMESLESGTAASNNDPEQWHWDSWDRPTHIHRGSVGNIGLGNNSTASPRTHHRQHGVKGKNSALANSTNFKSGRQSPSATEELNSTQGSQLTLTLTPSPPNSPFTPSSGLSSSLNGTPQRSRGTPPPARKHQTLLSQSHVQVDGEQLARNRLPTDPSPDSHSSTSSDIFVDPNTNASSGGSSSNVLMVPCSPGVGHVGMGHAIKHRFTKALGFMATCTLCQKQVFHRWMKCTDCKYICHKSCAPHVPPSCGLPREYVDEFRHIKEQGGYASLPHVHGAAKGSPLVKKSTLGKPLHQQHGDSSSPSSSCTSSTPSSPALFQQRERELDQAGSSSSANLLPTPSLGKHQPSQFNFPNVTVTSSGGSGGVSLISNEPVPEQFPTAPATANGGLDSLVSSSNGHMSSLIGSQTSNASTAATLTGSLVNSTTTTSTCSFFPRKLSTAGVDKRTPFTSEYTDTHKSNDSDKTVSLSGSASTDSDRTPVRVDSTEDGDSGQWRQNSISLKEWDIPYGDLLLLERIGQGRFGTVHRALWHGDVAVKLLNEDYLQDEHMLETFRSEVANFKNTRHENLVLFMGACMNPPYLAIVTSLCKGNTLYTYIHQRREKFAMNRTLLIAQQIAQGMGYLHAREIIHKDLRTKNIFIENGKVIITDFGLFSSTKLLYCDMGLGVPHNWLCYLAPELIRALQPEKPRGECLEFTPYSDVYSFGTVWYELICGEFTFKDQPAESIIWQVGRGMKQSLANLQSGRDVKDLLMLCWTYEKEHRPQFARLLSLLEHLPKKRLARSPSHPVNLSRSAESVF
chain 2: AYINIAEWTPDQVTDWIKGLDESMKGYLYEFSKQEIGGRALLNIRPYELENLGMLRIGHQEIVLEAVENLRNFHYHLKNDNLQFMALHVATAAKNLHRELARNHAESTKIDTRILHDITRTIATLKPLVGSLERTPFRKQEMYREYCGNVLKCGLELATIAHRDRFALQPVPAIRQSAERLENLANFVIQDISDPMVLQPASLNLVTLKKRESELGFNIESSYNGIHRVTDIKYNSPAHNSGKIEDGDEIVQINYQTVVGWQHRTVLEHLREALPDVVLTVKKRPKHTKMFGQIYMQPYRLPSKKRNMAARWAAQMPSPRAAFLTLDTEQLATGGTGSAVPDPSKSLSSEKREVLTKANPVSSASDSDSSCSDIPTPTDPKLAAREIRLYYPKPRALLQRRNTICGCEYLSLKNSDLVVPSWHERKPGIGSPTNCDPGSPSIRDKSISFGYGLEMAARPTTCIGIAGDTSTDKARRMFHEARKLKQLTEDSQREFLVDRYKPGVSKVVRFDAKEDYVMKNEKFICNVENTILETFEPIPFADEGDEDA
B2: GST-HYP [Drosophila] / V5-KSR [Drosophila] (parent)
chain 1: B1 chain 1
chain 2: MGEETINSTQNKTRTKTTRPKAVYLWTVSDVLKWYRRHCGEYTQYEQLFAQHDITGRALLRITDSSLQRMGVTDNRDREAIWREIVKQRLKTDIMEIRDMERLNIY
B3: GST-HYP [Drosophila] / Myc-MEK [Drosophila] (parent)
chain 1: MSKNKLNLVLPPVNTEATVAAATVAPTPPFKTPSGTDTHSLLGKPKTSIDALTETLEGLDMGDTERKRIKMFLSQKEKIGELSDEDLEKLGELGSGNGGVVMKVRHTHTHLIMARKLIHLEVKPAIKKQILRELKVLHECNFPHIVGFYGAFYSDGEISICMEYMDGGSLDLILKRAGRIPESILGRITLAVLKGLSYLRDNHAIIHRDVKPSNILVNSSGEIKICDFGVSGQLIDSMANSFVGTRSYMSPERLQGTHYSVQSDIWSLGLSLVEMAIGMYPIPPPNTATLESIFADNAEESGQPTDEPRAMAIFELLDYIVNEPPPKLEHKIFSTEFKDFVDICLKKQPDERADLKTLLSHPWIRKAELEEVDISGWVCKTMDLPPSTPKRNTSPN
chain 2: B2 chain 2

Variants of: B1
Assay: GST pull-down, immunoblot quantification
Settings: with V5-KSR [Drosophila], S2 cells, GST-HYP, Myc-MEK co-expressed, captured via GST-HYP, anti-V5 (KSR) blot, parent: 1

Variant	ratio to parent
chain 2 D194K	0.08
chain 2 D194K V197E	0.05
chain 2 M196E	0.49
chain 2 Q199A	0.82
chain 2 S193A	0.98
chain 2 V197E	0.07

Same assay, conditions: with V5-KSR [Drosophila]; S2 cells; GST-HYP + RRKM (Ha-RASV12, Pyo-RAF, V5-KSR, Myc-MEK) co-expressed; captured via GST-HYP; anti-V5 (KSR) blot; parent: 1

Variant	ratio to parent
chain 2 D194K	0.04
chain 2 M196E	0.26
chain 2 Q199A	0.73
chain 2 S193A	1
chain 2 V197E	0.03

Variants of: B1
Assay: GST pull-down, immunoblot quantification
Settings: with V5-KSR [Drosophila], S2 cells, GST-HYP, Myc-MEK co-expressed, captured via GST-HYP, anti-V5 (KSR) blot, parent: 1
Remark: another data set of the same source

Variant	ratio to parent
chain 2 M196E	0.62
chain 2 A40F	0.93
chain 2 H263A	0.9
chain 2 K33D	0.95
chain 2 K109E	0.92
chain 2 L267R	0.89
chain 2 R264E	0.89
chain 2 T135F	0.95

Variants of: B1
Assay: GST pull-down, immunoblot quantification
Settings: with V5-KSR [Drosophila]; S2 cells; Flag-CNK2–549, V5-KSR, Myc-MEK, GST-HYP co-expressed; captured via GST-HYP; anti-V5 (KSR) blot; parent: 1

Variant	ratio to parent
chain 2 N81E	0.15
chain 2 N81W	0.07
chain 2 N95E	0.92
chain 2 Q83E	0.16
chain 2 R45F	0.99
chain 2 R98E	0.81
chain 2 Y75R	0.74

Same assay, conditions: with V5-KSR [Drosophila]; S2 cells; GST-HYP + RRKM co-expressed; captured via GST-HYP; anti-V5 (KSR) blot; parent: 1

Variant	ratio to parent
chain 2 A66F	0.97
chain 2 A66F F73R	0.66
chain 2 D80R	0.61
chain 2 D80R K282D	0.16
chain 2 E249R	0.82
chain 2 E249R V251R	0.08
chain 2 F73R	0.87
chain 2 F73R E249R	0.16
chain 2 F73R V251R	0.72
chain 2 K282D	0.03
chain 2 V251R	0.79

Same assay, conditions: with V5-KSR [Drosophila]; S2 cells; GST-HYP, Flag-CNK2–549 + RRKM co-expressed; captured via GST-HYP; anti-V5 (KSR) blot; parent: 1

Variant	ratio to parent
chain 2 I122D	0.76
chain 2 I122D L151D	0.01
chain 2 L151D	0.14

Variants of: B2
Assay: GST pull-down, immunoblot quantification
Settings: with V5-KSR [Drosophila]; S2 cells; GST-HYP, Flag-CNK2–549 + RRKM co-expressed; anti-V5 (KSR) blot; parent: 1

Variant	ratio to parent
chain 2 I97D	0.62
chain 2 L90D	0.13
chain 2 L90D I97D	0.05

Variants of: B3
Assay: GST pull-down, immunoblot quantification
Settings: with Myc-MEK [Drosophila]; S2 cells; GST-HYP, Flag-CNK2–549 + RRKM co-expressed; anti-Myc (MEK) blot; parent: 1

Variant	ratio to parent
chain 2 I97D	0.68
chain 2 L90D	0.09
chain 2 L90D I97D	0.04
